Test results reported in patent US20220153847A1 (Chugai, published 2022).

T1: HLA-DQ2.2 on Ba/F3 cells (human, UniProt P01909 24-216, limits assumed)
T1 construct: whole, on cells; also called Ba/F3-HLA-DQ2.2
T1 MHC II alpha: not shown
T1 MHC II beta: not shown

T2: HLA-DQ6.3 on Ba/F3 cells (human, UniProt P01920 33-230, limits assumed)
T2 construct: whole, on cells; also called Ba/F3-HLA-DQ6.3
T2 MHC II alpha: not shown
T2 MHC II beta: not shown


Columns and labels:
HLA-DQ2.2 on Ba/F3 cells = molecular target: T1, HLA-DQ2.2 on Ba/F3 cells; assay: FACS, Ba/F3 cells; IC17=0%, DQN0139bb//IC17=100%;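 note: flow cytometry binding of anti-HLA-DQ antibodies at 5 µg/mL, incubated 30 min at room temperature with Ba/F3 lines presenting HLA-DQ/peptide complexes; antibody tested at 5 microgram/mL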
Source text: (§1) The binding of anti-HLA-DQ antibodies to Ba/F3-HLA-DQ2.5, Ba/F3-HLA-DQ2.2, Ba/F3-HLA-DQ7.5, Ba/F3-HLA-DQ8, Ba/F3-HLA-DQ5.1, Ba/F3-HLA-DQ6.3, Ba/F3-HLA-DQ7.3, Ba/F3-HLA-DR, Ba/F3-HLA-DP, Ba/F3-HLA-DQ2.5/CLIP, Ba/F3-HLA-DQ2.5/HBV, Ba/F3-HLA-DQ2.5/Salmonella, Ba/F3-HLA-DQ2.5/TPO, Ba/F3-HLA-DQ2.5/M. bovis, Ba/F3-HLA-DQ2.5/alpha 1 gliadin, Ba/F3-HLA-DQ2.5/alpha 2 gliadin, Ba/F3-HLA-DQ2.5/gamma 1 gliadin, Ba/F3-HLA-DQ2.5/gamma 2 gliadin, Ba/F3-HLA-DQ2.5/omega 1 gliadin, Ba/F3-HLA-DQ2.5/omega 2 gliadin, Ba/F3-HLA-DQ2.5/BC hordein, Ba/F3-HLA-DQ2.5/alpha 3 gliadin, Ba/F3-HLA-DQ2.5/alpha 1b gliadin, Ba/F3-HLA-DQ2.5/gamma 4b gliadin, Ba/F3-HLA-DQ2.5/avenin 1, Ba/F3-HLA-DQ2.5/avenin 2, Ba/F3-HLA-DQ2.5/avenin 3, Ba/F3-HLA-DQ2.5/hordein 1, Ba/F3-HLA-DQ2.5/hordein 2, Ba/F3-HLA-DQ2.5/secalin 1, Ba/F3-HLA-DQ2.5/secalin 2, Ba/F3-HLA-DQ2.5/14mer 1, Ba/F3-HLA-DQ2.5/33mer gliadin, Ba/F3-HLA-DQ2.5/26mer gliadin, was tested. 5 microgram/mL of each of the anti-HLA-DQ antibodies was incubated with each cell line for 30 minutes at room temperature and washed with FACS buffer (2% FBS, 2 mM EDTA in PBS).

[1] = molecular target: T3, HLA-DQ2.5/33mer gliadin peptide complex on Ba/F3 cells (human); assay: FACS, Ba/F3 cells; IC17=0%, DQN0139bb//IC17=100%;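 note: flow cytometry binding of anti-HLA-DQ antibodies at 5 µg/mL, incubated 30 min at room temperature with Ba/F3 lines presenting HLA-DQ/peptide complexes; antibody tested at 5 microgram/mL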
T3 construct: whole, on cells; also called Ba/F3-HLA-DQ2.5/33mer gliadin
Source text: as §1

[2] = molecular target: T4, HLA-DQ2.5/alpha 1 gliadin peptide complex on Ba/F3 cells (human); assay: FACS, Ba/F3 cells; IC17=0%, DQN0139bb//IC17=100%;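 note: flow cytometry binding of anti-HLA-DQ antibodies at 5 µg/mL, incubated 30 min at room temperature with Ba/F3 lines presenting HLA-DQ/peptide complexes; antibody tested at 5 microgram/mL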
T4 construct: whole, on cells; also called Ba/F3-HLA-DQ2.5/alpha 1 gliadin; HLA-DQ2.5/a1 gliadin
Source text: as §1

[3] = molecular target: T5, HLA-DQ2.5/alpha 2 gliadin peptide complex on Ba/F3 cells (human); assay: FACS, Ba/F3 cells; IC17=0%, DQN0139bb//IC17=100%;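 note: flow cytometry binding of anti-HLA-DQ antibodies at 5 µg/mL, incubated 30 min at room temperature with Ba/F3 lines presenting HLA-DQ/peptide complexes; antibody tested at 5 microgram/mL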
T5 construct: whole, on cells; also called Ba/F3-HLA-DQ2.5/alpha 2 gliadin; HLA-DQ2.5/a2 gliadin
Source text: as §1

[4] = molecular target: T6, HLA-DQ2.5/gamma 1 gliadin peptide complex on Ba/F3 cells (human); assay: FACS, Ba/F3 cells; IC17=0%, DQN0139bb//IC17=100%
T6 construct: whole, on cells; also called Ba/F3-HLA-DQ2.5/gamma 1 gliadin; HLA-DQ2.5/g1 gliadin
Source text: as §1

[5] = molecular target: T7, HLA-DQ2.5/gamma 2 gliadin peptide complex on Ba/F3 cells (human); assay: FACS, Ba/F3 cells; IC17=0%, DQN0139bb//IC17=100%
T7 construct: whole, on cells; also called Ba/F3-HLA-DQ2.5/gamma 2 gliadin; HLA-DQ2.5/g2 gliadin
Source text: as §1

[6] = molecular target: T8, HLA-DQ2.5/omega 1 gliadin peptide complex on Ba/F3 cells (human); assay: FACS, Ba/F3 cells; IC17=0%, DQN0139bb//IC17=100%
T8 construct: whole, on cells; also called Ba/F3-HLA-DQ2.5/omega 1 gliadin; HLA-DQ2.5/w1 gliadin
Source text: as §1

[7] = molecular target: T9, HLA-DQ2.5/omega 2 gliadin peptide complex on Ba/F3 cells (human); assay: FACS, Ba/F3 cells; IC17=0%, DQN0139bb//IC17=100%
T9 construct: whole, on cells; also called Ba/F3-HLA-DQ2.5/omega 2 gliadin; HLA-DQ2.5/w2 gliadin
Source text: as §1

[8] = molecular target: T10, HLA-DQ2.5/BC hordein peptide complex on Ba/F3 cells (human); assay: FACS, Ba/F3 cells; IC17=0%, DQN0139bb//IC17=100%
T10 construct: whole, on cells; also called Ba/F3-HLA-DQ2.5/BC hordein
Source text: as §1

[9] = molecular target: T11, HLA-DQ2.5/alpha 3 gliadin peptide complex on Ba/F3 cells (human); assay: FACS, Ba/F3 cells; IC17=0%, DQN0139bb//IC17=100%
T11 construct: whole, on cells; also called Ba/F3-HLA-DQ2.5/alpha 3 gliadin; HLA-DQ2.5/a3 gliadin
Source text: as §1

[10] = molecular target: T12, HLA-DQ2.5/alpha 1b gliadin peptide complex on Ba/F3 cells (human); assay: FACS, Ba/F3 cells; IC17=0%, DQN0139bb//IC17=100%
T12 construct: whole, on cells; also called Ba/F3-HLA-DQ2.5/alpha 1b gliadin; HLA-DQ2.5/a1b gliadin
Source text: as §1

[11] = molecular target: T13, HLA-DQ2.5/gamma 4b gliadin peptide complex on Ba/F3 cells (human); assay: FACS, Ba/F3 cells; IC17=0%, DQN0139bb//IC17=100%
T13 construct: whole, on cells; also called Ba/F3-HLA-DQ2.5/gamma 4b gliadin; HLA-DQ2.5/g4b gliadin
Source text: as §1

[12] = molecular target: T14, HLA-DQ2.5/hordein 1 peptide complex on Ba/F3 cells (human); assay: FACS, Ba/F3 cells; IC17=0%, DQN0139bb//IC17=100%
T14 construct: whole, on cells; also called Ba/F3-HLA-DQ2.5/hordein 1
Source text: as §1

[13] = molecular target: T15, HLA-DQ2.5/hordein 2 peptide complex on Ba/F3 cells (human); assay: FACS, Ba/F3 cells; IC17=0%, DQN0139bb//IC17=100%
T15 construct: whole, on cells; also called Ba/F3-HLA-DQ2.5/hordein 2
Source text: as §1

[14] = molecular target: T16, HLA-DQ2.5/secalin 1 peptide complex on Ba/F3 cells (human); assay: FACS, Ba/F3 cells; IC17=0%, DQN0139bb//IC17=100%
T16 construct: whole, on cells; also called Ba/F3-HLA-DQ2.5/secalin 1
Source text: as §1

[15] = molecular target: T17, HLA-DQ2.5/secalin 2 peptide complex on Ba/F3 cells (human); assay: FACS, Ba/F3 cells; IC17=0%, DQN0139bb//IC17=100%
T17 construct: whole, on cells; also called Ba/F3-HLA-DQ2.5/secalin 2
Source text: as §1

[16] = molecular target: T18, HLA-DQ2.5/14mer 1 peptide complex on Ba/F3 cells (human); assay: FACS, Ba/F3 cells; IC17=0%, DQN0139bb//IC17=100%
T18 construct: whole, on cells; also called Ba/F3-HLA-DQ2.5/14mer 1
Source text: as §1

[17] = molecular target: T19, HLA-DQ2.5/26mer gliadin peptide complex on Ba/F3 cells (human); assay: FACS, Ba/F3 cells; IC17=0%, DQN0139bb//IC17=100%
T19 construct: whole, on cells; also called Ba/F3-HLA-DQ2.5/26mer gliadin
Source text: as §1

HLA-DQ6.3 on Ba/F3 cells = molecular target: T2, HLA-DQ6.3 on Ba/F3 cells; assay: FACS on Ba/F3-HLA-DQ6.3 cells, single antibody concentration, goat F(ab')2 anti-human IgG-PE

| Binder | % MFI (HLA-DQ2.2 on Ba/F3 cells) [%] | % MFI [1] [%] | % MFI [2] [%] | % MFI [3] [%] | % MFI [4] [%] | % MFI [5] [%] | % MFI [6] [%] | % MFI [7] [%] | % MFI [8] [%] | % MFI [9] [%] | % MFI [10] [%] | % MFI [11] [%] | % MFI [12] [%] | % MFI [13] [%] | % MFI [14] [%] | % MFI [15] [%] | % MFI [16] [%] | % MFI [17] [%] | binding result (HLA-DQ6.3 on Ba/F3 cells) |
| --- | --- | --- | --- | --- | --- | --- | --- | --- | --- | --- | --- | --- | --- | --- | --- | --- | --- | --- | --- |
| DQN0429cc//IC17 (bispecific antibody, human IgG1, kappa) heavy 1: QEQLVESGGGLVQPEGSLTLTCTASGFSFSSSYYMCWVRQAPGKGLEWIGCIYTGSGSTDYATWVNGRFTISKTSSTTVTLQMTSLTVADTATYFCARDIGIDYNFWGPGTLVTVSSASTKGPSVFPLAPSSKSTSGGTAALGCLVKDYFPEPVTVSWNSGALTSGVHTFPAVLQSSGLYSLSSVVTVPSSSLGTQTYICNVNHKPSNTKVDKRVEPKSCDKTHTCPPCPAPELRRGPSVFLFPPKPKDTLMISRTPEVTCVVVDVSHEDPEVKFNWYVDGVEVHNAKTKPREEQYNSTYRVVSVLTVLHQDWLNGKEYKCKVSNKALPAPIEKTISKAKGQPREPQVYTLPPSREEMTKNQVSLTCLVKGFYPSDIAVEWESNGQPENNYKTTPPYLDSDGSFFLYSKLTVDKSRWQQGNVFSCSVMHEALHNHYTQESLSLSP light 1: AFELTQTPSFVEARVGGTVTIKCQATQSISSYLNWYQQKPGQPPKLLIYYASTLASGVPSRFKGSGSGTEFTLTISGVECADAATYYCHYGISYVSFGGGTKVEIKRTVAAPSVFIFPPSDEQLKSGTASVVCLLNNFYPREAKVQWKVDNALQSGNSQESVTEQDSKDCTYSLSSTLTLSKADYEKHKVYACEVTHQGLSSPVTKSFNRGEC heavy 2: QVQLQQSGPQLVRPGASVKISCKASGYSFTSYWMHWVNQRPGQGLEWIGMIDPSYSETRLNQKFKDKATLTVDKSSSTAYMQLSSPTSEDSAVYYCALYGNYFDYWGQGTTLTVSSASTKGPSVFPLAPSSKSTSGGTAALGCLVKDYFPEPVTVSWNSGALTSGVHTFPAVLQSSGLYSLSSVVTVPSSSLGTQTYICNVNHKPSNTKVDKRVEPKSCDKTHTCPPCPAPELRRGPSVFLFPPKPKDTLMISRTPEVTCVVVDVSHEDPEVKFNWYVDGVEVHNAKTKPREEQYNSTYRVVSVLTVLHQDWLNGKEYKCKVSNKALPAPIEKTISKAKGQPREPQVYTLPPSRKEMTKNQVSLTCLVKGFYPSDIAVEWESNGQPENNYKTTPPYLDSDGSFFLYSKLTVDKSRWQQGNVFSCSVMHEALHNHYTQKSLSLSP light 2: DIQMTQSSSSFSVSLGDRVTITCKASEDIYNRLAWYQQKPGNAPRLLISGATSLETGVPSRFSGSGSGKDYTLSITSLQTEDVATYYCQQYWSTPYTFGGGTKLEVKRTVAAPSVFIFPPSDEQLKSGTASVVCLLNNFYPREAKVQWKVDNALQSGNSQESVTEQDSKDSTYSLSSTLTLSKADYEKHKVYACEVTHQGLSSPVTKSFNRGEC | 0.3 | 67.1 | 3.5 | 55.5 | 12.6 | 0.8 | 11.5 | 45.4 | 14.9 | 0.8 | 9.2 | 3.2 | 1.5 | 93.2 | 10.9 | 30.6 | 16.3 | 26.2 |  |
| IC17 (antibody, V domains shown, also called IC17 bivalent; TC17) VH: QVQLQQSGPQLVRPGASVKISCKASGYSFTSYWMHWVNQRPGQGLEWIGMIDPSYSETRLNQKFKDKATLTVDKSSSTAYMQLSSPTSEDSAVYYCALYGNYFDYWGQGTTLTVSS VL: DIQMTQSSSSFSVSLGDRVTITCKASEDIYNRLAWYQQKPGNAPRLLISGATSLETGVPSRFSGSGSGKDYTLSITSLQTEDVATYYCQQYWSTPYTFGGGTKLEVK |  |  |  |  |  |  |  |  |  |  |  |  |  |  |  |  |  |  | no binding (tested: 5 microgram/mL) |
